According to patent publication US20220119534A1 (DRAGONFLY THERAPEUTICS, published 2022):
Where “and” joins values, the source holds several entries; their conditions need not be identical. Identical values can stand only once. Like-named read-outs stand apart in the source and are kept apart here. One block for each binder: values may come before it.

How the values were obtained:
[1] = molecular target: T1, Human CD16a V158 (human, UniProt P08637 17-208, biotinylated); experiment: SPR; sample after low pH hold
T1 construct: Bought recombinant receptor; also called hCD16a (V158); hFcγRIIIa V158
T1 sequence (P08637 17-208 F176V limits assumed): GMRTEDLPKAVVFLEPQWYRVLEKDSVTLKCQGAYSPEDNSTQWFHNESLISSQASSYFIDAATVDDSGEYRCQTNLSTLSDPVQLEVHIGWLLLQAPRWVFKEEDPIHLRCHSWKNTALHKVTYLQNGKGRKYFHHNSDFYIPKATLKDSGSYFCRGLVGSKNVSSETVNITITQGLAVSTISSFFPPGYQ

[2] = molecular target: T2, mFc-hNKG2D (human, UniProt P26718 73-216); experiment: SPR; sample after low pH hold
T2 construct: extracellular domain; Recombinant mFc-tagged NKG2D dimer, made in house; also called human NKG2D; not shown: mouse Fc tag
T2 sequence (looked up): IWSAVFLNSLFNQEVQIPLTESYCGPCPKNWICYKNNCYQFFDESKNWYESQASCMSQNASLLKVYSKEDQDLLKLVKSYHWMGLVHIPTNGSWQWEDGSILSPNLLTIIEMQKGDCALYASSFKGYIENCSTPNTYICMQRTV

[3] = molecular target: T3, Human CLEC12A-His (human, UniProt Q5QGZ9 65-265); experiment: SPR; sample after low pH hold
T3 construct: Recombinant soluble protein made in house; also called hCLEC12A-His; hCLEC12A; not shown: His tag
T3 sequence: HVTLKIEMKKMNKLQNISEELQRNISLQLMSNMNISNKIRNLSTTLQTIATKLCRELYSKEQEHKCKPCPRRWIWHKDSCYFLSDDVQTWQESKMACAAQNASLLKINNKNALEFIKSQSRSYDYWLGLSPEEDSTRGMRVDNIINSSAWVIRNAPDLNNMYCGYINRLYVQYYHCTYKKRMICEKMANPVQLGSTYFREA

[4] = molecular target: T4, human CLEC12A on cells (HL60, PL21, Ba/F3-hCLEC12A) (human, UniProt Q5QGZ9 1-265); experiment: flow cytometry, Ba/F3-hCLEC12A cells
T4 construct: Endogenous on the AML lines HL60 and PL21; brought into mouse Ba/F3 cells by retroviral transduction; The cell line stands under assay; also called CLL-1
T4 sequence: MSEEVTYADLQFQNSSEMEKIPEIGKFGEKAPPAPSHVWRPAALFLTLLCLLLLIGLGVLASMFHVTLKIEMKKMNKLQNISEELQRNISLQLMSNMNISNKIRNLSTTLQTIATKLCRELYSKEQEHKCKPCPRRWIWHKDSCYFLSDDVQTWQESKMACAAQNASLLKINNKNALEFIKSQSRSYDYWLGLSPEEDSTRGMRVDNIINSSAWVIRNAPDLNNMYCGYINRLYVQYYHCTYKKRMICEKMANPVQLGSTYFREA

[5] = molecular target: T1, Human CD16a V158; experiment: SPR; sample after 4 weeks at 40 C in CST pH 7.0
[6] = molecular target: T2, mFc-hNKG2D; experiment: SPR; sample after 4 weeks at 40 C in CST pH 7.0
[7] = molecular target: T3, Human CLEC12A-His; experiment: SPR; sample after 4 weeks at 40 C in CST pH 7.0
[8] = molecular target: T1, Human CD16a V158; experiment: SPR, hCD16a V158 captured, kinetic fit
[9] = molecular target: T5, human CLEC12A expressed on cells (human, UniProt Q5QGZ9 1-265); experiment: flow cytometry, hCLEC12A+ Ba/F3
T5 construct: Transduced isogenic cells or endogenous expression on AML cells; also called RMA-hCLEC12A; Ba/F3-hCLEC12A
T5 sequence: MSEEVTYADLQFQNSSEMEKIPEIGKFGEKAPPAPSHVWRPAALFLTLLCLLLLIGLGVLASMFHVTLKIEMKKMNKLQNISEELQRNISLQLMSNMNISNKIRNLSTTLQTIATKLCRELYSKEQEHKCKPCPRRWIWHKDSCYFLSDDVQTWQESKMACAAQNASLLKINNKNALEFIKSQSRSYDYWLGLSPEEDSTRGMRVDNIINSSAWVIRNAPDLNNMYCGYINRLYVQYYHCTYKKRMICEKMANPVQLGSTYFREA

[10] = molecular target: T6, recombinant human CD16a V158 (human, UniProt P08637 17-208, biotinylated); experiment: SPR 25C, kinetic fit, average
T6 construct: also called FcγRIIIa V158; hCD16aV
T6 sequence (P08637 17-208 F176V limits assumed): as the sequence (P08637 17-208 F176V limits assumed) above

[11] = molecular target: T5, human CLEC12A expressed on cells; experiment: flow cytometry, hCLEC12A+ Ba/F3; remark: listed apart in the source
[12] = molecular target: T5, human CLEC12A expressed on cells; experiment: flow cytometry, hCLEC12A+ Ba/F3; remark: listed apart in the source

Kd [1]: 180 nM
koff [1]: 0.0212 s⁻¹
kon [1]: 118000 M⁻¹ s⁻¹
Kd [2]: 796 nM
koff [2]: 0.142 s⁻¹
kon [2]: 178000 M⁻¹ s⁻¹
Kd [3]: 1.66 nM
koff [3]: 0.00115 s⁻¹
kon [3]: 690000 M⁻¹ s⁻¹
EC50 [4]: 0.91 nM
Kd [5]: 174 nM
koff [5]: 0.0194 s⁻¹
kon [5]: 111000 M⁻¹ s⁻¹
Kd [6]: 653 nM
koff [6]: 0.121 s⁻¹
kon [6]: 185000 M⁻¹ s⁻¹
Kd [7]: 1.96 nM
koff [7]: 0.00147 s⁻¹
kon [7]: 749000 M⁻¹ s⁻¹
Kd [8]: 184 nM and 173 nM and 177 nM
koff [8]: 0.019 s⁻¹ and 0.0201 s⁻¹ and 0.0206 s⁻¹
kon [8]: 103000 M⁻¹ s⁻¹ and 116000 M⁻¹ s⁻¹
B1: AB0192 TriNKET (other)
chain: EVQLVESGGGVVQPGGSLRLSCAASGFTFNAFGMHWVRQAPGKCLEWVAFISSGSTSIYYANTVKGRFTISRDNSKNTLYLQMNSLRAEDTAVYYCARDGYPTGGAMDYWGQGTSVTVSSGGGGSGGGGSGGGGSGGGGSDIQMTQSPSSLSASVGDRVTITCKASQDIYNYLSWFQQKPGKAPKPLIYRANILVSGVPSRFSGSGSGQDYTFTISSLQPEDIATYYCLQFDAFPFTFGCGTKLEIKGSDKTHTCPPCPAPELLGGPSVFLFPPKPKDTLMISRTPEVTCVVVDVSHEDPEVKFNWYVDGVEVHNAKTKPREEQYNSTYRVVSVLTVLHQDWLNGKEYKCKVSNKALPAPIEKTISKAKGQPREPRVYTLPPCRDELTKNQVSLTCLVKGFYPSDIAVEWESNGQPENNYKTTPPVLVSDGSFTLYSKLTVDKSRWQQGNVFSCSVMHEALHNHYTQKSLSLSPG
heavy: EVQLVESGGGLVKPGGSLRLSCAASGFTFSSYSMNWVRQAPGKGLEWVSSISSSSSYIYYADSVKGRFTISRDNAKNSLYLQMNSLRAEDTAVYYCARGAPIGAAAGWFDPWGQGTLVTVSSASTKGPSVFPLAPSSKSTSGGTAALGCLVKDYFPEPVTVSWNSGALTSGVHTFPAVLQSSGLYSLSSVVTVPSSSLGTQTYICNVNHKPSNTKVDKKVEPKSCDKTHTCPPCPAPELLGGPSVFLFPPKPKDTLMISRTPEVTCVVVDVSHEDPEVKFNWYVDGVEVHNAKTKPREEQYNSTYRVVSVLTVLHQDWLNGKEYKCKVSNKALPAPIEKTISKAKGQPREPQVCTLPPSRDELTENQVSLTCLVKGFYPSDIAVEWESNGQPENNYKTTPPVLDSDGSFFLYSWLTVDKSRWQQGNVFSCSVMHEALHNHYTQKSLSLSPG
light: DIQMTQSPSSVSASVGDRVTITCRASQGISSWLAWYQQKPGKAPKLLIYAASSLQSGVPSRFSGSGSGTDFTLTISSLQPEDFATYYCQQGVSFPRTFGGGTKVEIKRTVAAPSVFIFPPSDEQLKSGTASVVCLLNNFYPREAKVQWKVDNALQSGNSQESVTEQDSKDSTYSLSSTLTLSKADYEKHKVYACEVTHQGLSSPVTKSFNRGEC
notes: the condition stands under assay; also called AB0192 Lot AB0192-005

EC50 [9]: 3.2 nM
Kd [10]: 238 nM
koff [10]: 0.022 s⁻¹
kon [10]: 94000 M⁻¹ s⁻¹
EC50 [11]: 14.4 nM
Max MFI [11]: 50200 MFI
EC50 [12]: 2 nM
Max binding MFI [12]: 14700 MFI
B2: F3'-1602 TriNKET (other)
chain: QLQLQESGPGLVKPSETLSLTCTVSGFSLTNYGLHWIRQPPGKCLEWIGVIWSGGKTDYNPSLKSRVTISKDTSKNQFSLKLSSVQAADTAVYYCAKYDYDDSLDYWGQGTLVTVSSGGGGSGGGGSGGGGSGGGGSDIQMTQSPSSLSASVGDRVTITCHASQNINFWLSWYQQKPGKAPKLLIYEASNLHTGVPSRFSGSGSGTRFTLTISSLQPEDIATYYCQQSHSYPLTFGCGTKLEIKGSDKTHTCPPCPAPELLGGPSVFLFPPKPKDTLMISRTPEVTCVVVDVSHEDPEVKFNWYVDGVEVHNAKTKPREEQYNSTYRVVSVLTVLHQDWLNGKEYKCKVSNKALPAPIEKTISKAKGQPREPRVYTLPPCRDELTKNQVSLTCLVKGFYPSDIAVEWESNGQPENNYKTTPPVLVSDGSFTLYSKLTVDKSRWQQGNVFSCSVMHEALHNHYTQKSLSLSPG
heavy: EVQLVESGGGLVKPGGSLRLSCAASGFTFSSYSMNWVRQAPGKGLEWVSSISSSSSYIYYADSVKGRFTISRDNAKNSLYLQMNSLRAEDTAVYYCARGAPIGAAAGWFDPWGQGTLVTVSSASTKGPSVFPLAPSSKSTSGGTAALGCLVKDYFPEPVTVSWNSGALTSGVHTFPAVLQSSGLYSLSSVVTVPSSSLGTQTYICNVNHKPSNTKVDKKVEPKSCDKTHTCPPCPAPELLGGPSVFLFPPKPKDTLMISRTPEVTCVVVDVSHEDPEVKFNWYVDGVEVHNAKTKPREEQYNSTYRVVSVLTVLHQDWLNGKEYKCKVSNKALPAPIEKTISKAKGQPREPQVCTLPPSRDELTENQVSLTCLVKGFYPSDIAVEWESNGQPENNYKTTPPVLDSDGSFFLYSWLTVDKSRWQQGNVFSCSVMHEALHNHYTQKSLSLSPG
light: DIQMTQSPSSVSASVGDRVTITCRASQGISSWLAWYQQKPGKAPKLLIYAASSLQSGVPSRFSGSGSGTDFTLTISSLQPEDFATYYCQQGVSFPRTFGGGTKVEIKRTVAAPSVFIFPPSDEQLKSGTASVVCLLNNFYPREAKVQWKVDNALQSGNSQESVTEQDSKDSTYSLSSTLTLSKADYEKHKVYACEVTHQGLSSPVTKSFNRGEC
notes: CLEC12A scFv-Fc, NKG2D A49MI Fab-Fc, human IgG1 Fc; also called AB0237
